# Changes are numbered by the printed parent chain. Numbers in names are those of the source.
# B1: CODA342: engineered chimeric LGIC receptor, L131R in SEQ ID NO: 33 (protein)
# chain: MRCSPGGVWLALAASLLHVSLQGEFQRKLYKELVKNYNPLERPVANDSQPLTVYFSLSLLQIMDVDEKNQVLTTNIWLQMSWTDHYLQWNVSEYPGVKTVRFPDGQIWKPDILLYNSADERFDATFHTNVRVNSSGHCQYLPPGIFKSSCPMDLKNFPMDVQTCKLKFGSWSYGGWSLDLQMQEADISGYIPNGEWDLVGIPGKRSERFYECCKEPYPDVTFTVTMRRRMGYYLIQMYIPSLLIVILSWISFWINMDAAPARVGLGITTVLTMTTQSSGSRASLPKVSYVKAIDIWMAVCLLFVFSALLEYAAVNFVSRQHKELLRFRRKRRHHKSPMLNLFQEDEAGEGRFNFSAYGMGPACLQAKDGISVKGANNSNTTNPPPAPSKSPEEMRKLFIQRAKKIDKISRIGFPMAFLIFNMFYWIIYKIVRREDVHNQ
# modifications: synthetic sequence of chimeric LGIC
# B2: CODA337: engineered chimeric LGIC receptor, L131N in SEQ ID NO: 33 (protein)
# chain: B1 chain with R131N
# modifications: synthetic sequence of chimeric LGIC
# System: Lenti-X 293T cells
# Assay: YFP fluorescence quenching anion reporter plate reader assay of engineered receptors stimulated with acetylcholine or a non-native ligand
# Assay type: cell-based
# Conditions: for percent quench of YFP fluorescence, 30 nM TC-6683: TC-6683 30 nM; for percent quench of YFP fluorescence, 300 nM TC-6683: TC-6683 300 nM; for percent quench of YFP fluorescence, 3 uM TC-6683: TC-6683 3 uM; for percent quench of YFP fluorescence, 30 uM TC-6683: TC-6683 30 uM; for percent quench of YFP fluorescence, 100 uM TC-6683: TC-6683 100 uM; for percent quench of YFP fluorescence, 10 uM ach: acetylcholine 10 uM; for percent quench of YFP fluorescence, 100 uM ach: acetylcholine 100 uM; for percent quench of YFP fluorescence, 1 mM ach: acetylcholine 1 mM; for percent quench of YFP fluorescence, 3 mM ach: acetylcholine 3 mM
# Method in brief: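 YFP quench was followed for about 1 min 43 s after ligand delivered in iodide-based ECS, pH 7.2. Values are end-of-read fluorescence (last 10 s) divided by the pre-ligand baseline (15 s). Cells were LX293T, transfected with receptor DNA a day before the assay.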
molecule,measurement,setting,value
B1,YFP fluorescence quenching using CNL001,"1 nM CNL001, first column",23.532%
same,YFP fluorescence quenching using CNL001,"1 nM CNL001, second column",26.054%
same,YFP fluorescence quenching using TC-5619/Bradanicline,1 nM brd,−7.83%
same,YFP fluorescence quenching using TC-5619/Bradanicline,3 nM brd,−12.89%
same,YFP fluorescence quenching using Varenicline,"3 nM var, first column",0.271
same,YFP fluorescence quenching using Varenicline,"3 nM var, second column",−3.613
same,YFP fluorescence quenching using CNL001,"10 nM CNL001, first column",43.69%
same,YFP fluorescence quenching using CNL001,"10 nM CNL001, second column",54.016%
same,YFP fluorescence quenching using TC-5619/Bradanicline,10 nM brd,−10.47%
same,YFP fluorescence quenching using TC-5619/Bradanicline,30 nM brd,59.48%
same,YFP fluorescence quenching using Facinicline,30 nM fac,−6.2
same,YFP fluorescence quenching using Varenicline,"30 nM var, first column",−4.935
same,YFP fluorescence quenching using Varenicline,"30 nM var, second column",−4.363
same,YFP fluorescence quenching using CNL001,"50 nM CNL001, first column",59.955%
same,YFP fluorescence quenching using CNL001,"50 nM CNL001, second column",56.091%
same,YFP fluorescence quenching using ABT-126,50 nM abt,−18.14%
same,YFP fluorescence quenching using CNL001,"100 nM CNL001, first column",64.536%
same,YFP fluorescence quenching using CNL001,"100 nM CNL001, second column",58.987%
same,YFP fluorescence quenching using CNL002,100 nM CNL002,−17.2%
same,YFP fluorescence quenching using ABT-126,100 nM abt,−18.14%
same,YFP fluorescence quenching using AZD-0328,100 nM azd0328,1.79%
same,YFP fluorescence quenching using TC-5619/Bradanicline,100 nM brd,70.19%
same,YFP fluorescence quenching using ABT-126,300 nM abt,−0.81%
same,YFP fluorescence quenching using AZD-0328,300 nM azd0328,66.58%
same,YFP fluorescence quenching using TC-5619/Bradanicline,300 nM brd,75.11%
same,YFP fluorescence quenching using Facinicline,300 nM fac,76.75
same,YFP fluorescence quenching using Varenicline,"300 nM var, first column",0.282
same,YFP fluorescence quenching using Varenicline,"300 nM var, second column",2.32
same,YFP fluorescence quenching using ABT-126,500 nM abt,23.29%
same,YFP fluorescence quenching using Varenicline,"500 nM var, first column",23.777
same,YFP fluorescence quenching using Varenicline,"500 nM var, second column",18.376
same,YFP fluorescence quenching using CNL001,"1 uM CNL001, first column",65.987%
same,YFP fluorescence quenching using CNL001,"1 uM CNL001, second column",64.312%
same,YFP fluorescence quenching using CNL002,1 uM CNL002,8.12%
same,YFP fluorescence quenching using ABT-126,1 uM abt,45.76%
same,YFP fluorescence quenching using TC-5619/Bradanicline,1 uM brd,77.42%
same,YFP fluorescence quenching using TC-6987,1 uM tc6987,2.51
same,YFP fluorescence quenching using Varenicline,"1 uM var, first column",66.17
same,YFP fluorescence quenching using Varenicline,"1 uM var, second column",66.088
same,YFP fluorescence quenching using ABT-126,3 uM abt,53.03%
same,YFP fluorescence quenching using ABT-126,10 uM abt,64.08%
same,YFP fluorescence quenching using Facinicline,10 uM fac,82.16
same,YFP fluorescence quenching using TC-6987,10 uM tc6987,46.22
same,YFP fluorescence quenching using CNL002,30 uM CNL002,57.24%
same,YFP fluorescence quenching using ABT-126,30 uM abt,71.98%
same,YFP fluorescence quenching using AZD-0328,30 uM azd0328,80.55%
same,YFP fluorescence quenching using Facinicline,30 uM fac,81.71
same,YFP fluorescence quenching using ABT-126,50 uM abt,73.98%
same,YFP fluorescence quenching using ABT-126,100 uM abt,73.51%
same,YFP fluorescence quenching using TC-6987,500 uM tc6987,68.33
same,"percent quench of YFP fluorescence, 30 nM TC-6683",,−16.26%
same,"percent quench of YFP fluorescence, 300 nM TC-6683",,−22.45%
same,"percent quench of YFP fluorescence, 3 uM TC-6683",,−13.48%
same,"percent quench of YFP fluorescence, 30 uM TC-6683",,−12.68%
same,"percent quench of YFP fluorescence, 100 uM TC-6683",,−10.33%
same,"percent quench of YFP fluorescence, 10 uM ach",,−2.57%
same,"percent quench of YFP fluorescence, 100 uM ach",,−3.18%
same,"percent quench of YFP fluorescence, 1 mM ach",,78.98%
same,"percent quench of YFP fluorescence, 3 mM ach",,75.75%
B2,YFP fluorescence quenching using CNL001,"1 nM CNL001, first column",76.917%
same,YFP fluorescence quenching using CNL001,"1 nM CNL001, second column",79.554%
same,YFP fluorescence quenching using TC-5619/Bradanicline,3 nM brd,71.02%
same,YFP fluorescence quenching using Varenicline,"3 nM var, first column",3.093
same,YFP fluorescence quenching using Varenicline,"3 nM var, second column",12.327
same,YFP fluorescence quenching using CNL001,"10 nM CNL001, first column",79.479%
same,YFP fluorescence quenching using CNL001,"10 nM CNL001, second column",79.506%
same,YFP fluorescence quenching using TC-5619/Bradanicline,30 nM brd,78.43%
same,YFP fluorescence quenching using Facinicline,30 nM fac,82.25
same,YFP fluorescence quenching using Varenicline,"30 nM var, first column",77.097
same,YFP fluorescence quenching using Varenicline,"30 nM var, second column",77.653
same,YFP fluorescence quenching using CNL001,"50 nM CNL001, first column",81.465%
same,YFP fluorescence quenching using CNL001,"50 nM CNL001, second column",81.297%
same,YFP fluorescence quenching using ABT-126,50 nM abt,−11.64%
same,YFP fluorescence quenching using CNL001,"100 nM CNL001, first column",82.619%
same,YFP fluorescence quenching using CNL001,"100 nM CNL001, second column",81.722%
same,YFP fluorescence quenching using CNL002,100 nM CNL002,76.37%
same,YFP fluorescence quenching using ABT-126,100 nM abt,34.79%
same,YFP fluorescence quenching using AZD-0328,100 nM azd0328,82.1%
same,YFP fluorescence quenching using ABT-126,300 nM abt,60.08%
same,YFP fluorescence quenching using AZD-0328,300 nM azd0328,82.52%
same,YFP fluorescence quenching using TC-5619/Bradanicline,300 nM brd,77.12%
same,YFP fluorescence quenching using Facinicline,300 nM fac,83.59
same,YFP fluorescence quenching using Varenicline,"300 nM var, first column",79.446
same,YFP fluorescence quenching using Varenicline,"300 nM var, second column",79.998
same,YFP fluorescence quenching using Varenicline,"500 nM var, first column",80.691
same,YFP fluorescence quenching using Varenicline,"500 nM var, second column",80.309
same,YFP fluorescence quenching using CNL001,"1 uM CNL001, first column",81.96%
same,YFP fluorescence quenching using CNL001,"1 uM CNL001, second column",81.773%
same,YFP fluorescence quenching using CNL002,1 uM CNL002,80.18%
same,YFP fluorescence quenching using ABT-126,1 uM abt,65.99%
same,YFP fluorescence quenching using TC-6987,1 uM tc6987,79.06
same,YFP fluorescence quenching using Varenicline,"1 uM var, first column",80.258
same,YFP fluorescence quenching using Varenicline,"1 uM var, second column",79.509
same,YFP fluorescence quenching using TC-6987,10 uM tc6987,82.36
same,YFP fluorescence quenching using CNL002,30 uM CNL002,80.93%
same,YFP fluorescence quenching using AZD-0328,30 uM azd0328,82.32%
same,YFP fluorescence quenching using Facinicline,30 uM fac,82.82
same,YFP fluorescence quenching using TC-6987,500 uM tc6987,80.19
same,"percent quench of YFP fluorescence, 30 nM TC-6683",,−11.51%
same,"percent quench of YFP fluorescence, 300 nM TC-6683",,−13.17%
same,"percent quench of YFP fluorescence, 3 uM TC-6683",,−5.46%
same,"percent quench of YFP fluorescence, 30 uM TC-6683",,8.53%
same,"percent quench of YFP fluorescence, 100 uM TC-6683",,14.41%
same,"percent quench of YFP fluorescence, 10 uM ach",,28.32%
same,"percent quench of YFP fluorescence, 100 uM ach",,81.8%
same,"percent quench of YFP fluorescence, 1 mM ach",,71.22%
same,"percent quench of YFP fluorescence, 3 mM ach",,73.7%

# — patent US20240317834A1, “COMPOSITIONS AND METHODS FOR NEUROLOGICAL DISEASES” (CODA BIOTHERAPEUTICS, INC., priority 2020, published 2024)
